The source of these data is patent publication US20020098523A1.

Experiment [1] concerns the target Human eotaxin (human) (UniProt P51671). Briefly: cell-based or functional assay.
Experiment [2] shares this target. Briefly: not stated (summary sentence in the introduction).
Experiment [3] shares this target. Briefly: saturation binding of [125I]eotaxin to coated CAT-212 on a Flash Plate, Scatchard plot.
For experiment [4] the target is unchanged. Briefly: Flash Plate scintillation competition: unlabelled CAT-212 against coated CAT-212 for [125I]eotaxin; mean of 4 estimates.

A word on the Kd: it is the equilibrium constant for the complex coming apart. High values mean a looser complex, low ones a tighter complex. The term IC50 denotes the concentration at which inhibition is half-maximal.

Human eotaxin (human), sequence (P51671 24-97 limits assumed): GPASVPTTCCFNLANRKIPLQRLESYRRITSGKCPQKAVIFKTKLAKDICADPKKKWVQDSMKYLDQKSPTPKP

B1: CAT-212 (scFv, part only; not given: scFv linker and myc/His tag, V domains shown, not shown: another chain or arm of the molecule; small tags and cut ends)
VH: QVQLVQSGGGVVQPGRSLRLSCAASGFTFSSYGMHWVRQAPGKGLEWVAVISYDGSIKHYADSVKGRFTISRDNSKNTLYLQMNSLRTDDTAVYYCAGDTDYGDIDPWGQGTMVTVSS
VL: DIQMTQSPSSVSASVGDRVTITCRASQDISSWLAWYQQKPGKAPKLLIYAASSLQSGVPSRFSGSGSGTDFTLTISSLQPEDFATYYCQQASSFPSITFGQGTRLEIK
For the molecule B1, in the experiment with Human eotaxin (human) [1], the IC50, inhibition of eotaxin-induced Ca2+ flux in CCR3 cells (FLIPR, area under the curve) was found to be 5 nM; the IC50, inhibition of eotaxin-mediated chemotaxis of CCR3-transfected L1.2 cells came out at 0.65 nM; the improvement in chemotaxis neutralisation potency over scFv 3G3 stood at 1000 fold. Besides, in the experiment with Human eotaxin (human) [2], the Kd was 0.015 nM. The Kd in the experiment with Human eotaxin (human) [3] worked out at 0.146 nM. The IC50 with Human eotaxin (human) [4] was 0.0425 nM.
